This note sets out measurements from paper doi:10.1101/2025.02.27.640518.

In this experiment the target is nCBP-2^L51F (yeast two-hybrid fusion) (cassava). Nature of the experiment: two-hybrid.

For “CBSV Naliendele VPg fused to the B42 transcriptional activation domain (natural protein)”, the fold less reporter activity than with nCBP-2 turned out to be 8 fold.
